According to article PMC5592240, “Succinyl-CoA:Mesaconate CoA-Transferase and Mesaconyl-CoA Hydratase, Enzymes of the Methylaspartate Cycle in Haloarcula hispanica” (Frontiers in Microbiology, 2017):

Assays:
[1] = target: the molecule itself; experiment: SEC; analytical gel filtration, 24-ml Superdex 200 Increase 10/300 GL, 50 mM Tris/HCl pH 8.0 with 2 M KCl, 0.75 ml/min; calibrated with alcohol dehydrogenase (150 kDa), bovine serum albumin (66 kDa), carbonic anhydrase (29 kDa), cytochrome c (12.4 kDa); native mass against the monomer's mass
[2] = substrate: O=C(O)CCCC(=O)O; experiment: UPLC of CoA-ester formation; type: biochemical, Haloarcula hispanica; conditions: CoA acceptor, 1 mM succinyl-CoA, 100 mM Tris/HCl pH 7.8, 3 M KCl, 5 mM MgCl2, 37°C, apparent
Excerpt: (§1) UPLC of CoA-ester formation on succinyl-CoA:mesaconate CoA-transferase (Mct, Hah_1336)

[3] = substrate: CC(CC(=O)O)C(=O)O; experiment: UPLC of CoA-ester formation; type: biochemical, Haloarcula hispanica; conditions: CoA acceptor, 1 mM succinyl-CoA, 100 mM Tris/HCl pH 7.8, 3 M KCl, 5 mM MgCl2, 37°C, apparent
Excerpt: as §1

[4] = substrate: C=CC(=O)O; experiment: UPLC of CoA-ester formation; type: biochemical, Haloarcula hispanica; conditions: CoA acceptor, 1 mM succinyl-CoA, 100 mM Tris/HCl pH 7.8, 3 M KCl, 5 mM MgCl2, 37°C, apparent
Excerpt: as §1

[5] = substrate: CC(C)(COP(=O)(O)OP(=O)(O)OC[C@H]1O[C@@H](n2cnc3c(N)ncnc32)[C@H](O)[C@@H]1OP(=O)(O)O)[C@@H](O)C(=O)NCCC(=O)NCCSC(=O)CCC(=O)O; experiment: UPLC of mesaconyl-CoA formation; type: biochemical, Haloarcula hispanica; conditions: CoA donor, 10 mM mesaconate, 100 mM Tris/HCl pH 7.8, 3 M KCl, 5 mM MgCl2, 37°C, apparent
Excerpt: (§2) UPLC of mesaconyl-CoA formation on succinyl-CoA:mesaconate CoA-transferase (Mct, Hah_1336)

[6] = substrate: C/C(=C\C(=O)O)C(=O)O; experiment: UPLC of mesaconyl-CoA formation; type: biochemical, Haloarcula hispanica; conditions: CoA acceptor, 1 mM succinyl-CoA, 100 mM Tris/HCl pH 7.8, 3 M KCl, 5 mM MgCl2, 37°C, apparent
Excerpt: as §2

[7] = substrate: CC(C)(COP(=O)(O)OP(=O)(O)OC[C@H]1O[C@@H](n2cnc3c(N)ncnc32)[C@H](O)[C@@H]1OP(=O)(O)O)[C@@H](O)C(=O)NCCC(=O)NCCSC(=O)C[C@](C)(O)C(=O)O; experiment: UPLC of CoA esters (dehydration); type: biochemical, Haloarcula hispanica; conditions: 100 mM Tris/HCl pH 7.8, 3 M KCl, 5 mM MgCl2, 37°C, apparent
Excerpt: (§3) UPLC of CoA esters (dehydration) on mesaconyl-CoA hydratase (Mch, Hah_1340)

[8] = substrate: CC(C)(COP(=O)(O)OP(=O)(O)OC[C@H]1O[C@@H](n2cnc3c(N)ncnc32)[C@H](O)[C@@H]1OP(=O)(O)O)[C@@H](O)C(=O)NCCC(=O)NCCSC(=O)C[C@H](O)C(=O)O; experiment: UPLC of CoA esters (dehydration); type: biochemical, Haloarcula hispanica; conditions: 100 mM Tris/HCl pH 7.8, 3 M KCl, 5 mM MgCl2, 37°C, apparent
Excerpt: as §3

[9] = substrate: C/C(=C\C(=O)SCCNC(=O)CCNC(=O)[C@H](O)C(C)(C)COP(=O)(O)OP(=O)(O)OC[C@H]1O[C@@H](n2cnc3c(N)ncnc32)[C@H](O)[C@@H]1OP(=O)(O)O)C(=O)O; experiment: UPLC of CoA esters (hydration to (S)-citramalyl-CoA); type: biochemical, Haloarcula hispanica; conditions: 100 mM Tris/HCl pH 7.8, 3 M KCl, 5 mM MgCl2, 37°C, forward direction (hydration), apparent
Excerpt: UPLC of CoA esters (hydration to (S)-citramalyl-CoA) on mesaconyl-CoA hydratase (Mch, Hah_1340)

[10] = substrate: C/C(=C\C(=O)O)C(=O)SCCNC(=O)CCNC(=O)[C@H](O)C(C)(C)COP(=O)(O)OP(=O)(O)OC[C@H]1O[C@@H](n2cnc3c(N)ncnc32)[C@H](O)[C@@H]1OP(=O)(O)O; experiment: UPLC of CoA esters (hydration to beta-methylmalyl-CoA); type: biochemical, Haloarcula hispanica; conditions: 100 mM Tris/HCl pH 7.8, 3 M KCl, 5 mM MgCl2, 37°C, forward direction (hydration), apparent
Excerpt: UPLC of CoA esters (hydration to beta-methylmalyl-CoA) on mesaconyl-CoA hydratase (Mch, Hah_1340)

[11] = substrate: C[C@H](C(=O)SCCNC(=O)CCNC(=O)[C@H](O)C(C)(C)COP(=O)(O)OP(=O)(O)OC[C@H]1O[C@@H](n2cnc3c(N)ncnc32)[C@H](O)[C@@H]1OP(=O)(O)O)[C@@H](O)C(=O)O; experiment: UPLC of CoA esters (dehydration to mesaconyl-C1-CoA); type: biochemical, Haloarcula hispanica; conditions: 100 mM Tris/HCl pH 7.8, 3 M KCl, 5 mM MgCl2, 37°C, reverse direction (dehydration), apparent
Excerpt: UPLC of CoA esters (dehydration to mesaconyl-C1-CoA) on mesaconyl-CoA hydratase (Mch, Hah_1340)

B1: succinyl-CoA:mesaconate CoA-transferase from Haloarcula hispanica (enzyme, UniProt G0HQ31 1-396, looked up)
chain: MGALDDLRVLDLTQVLAGPYCTMLLADMGADVVKVERPGGDLIRSNPPFVSDGDEEAYGGYFQSVNRGKRSLELDLGTDEDREAFLSLVERADVVVENFKAGTMEKFDCGYETLREHNPDLIYSSIRGFGDPRTGETHRQGQPSFDLIAQALGGVMEITGQSDGPPTKVGPGVGDLFTAVLNAVGILAAVHHRERTGEGQYVDTAMYDSMVSLCERTVYQYSCDGESPTRQGNSHPTLFPYDSFEAADGHVVIAAFADGHWETLCEAMERPDLAADYPDAGSRIANRESLRREIADWTATIDSETLLDLLEGRVPAAPVQNTADIFDDPHIHDREMLTDVDQPGADEQITIAGSPIKMTETMPSPGGRAPLLDEHRAELLDEAGVGTGTNRVESDD
notes: succinyl-CoA:mesaconate CoA-transferase (Mct, Hah_1336) of Haloarcula hispanica; the 1.19-kb mct gene (396 amino acids, predicted molecular mass 43 kDa) was cloned into pTA963; No removal of the tag is described; also called Mct; Hah_1336; source: Haloferax volcanii H1209 (pTA963), purified (Ni-NTA, gel filtration); not shown: His6, N-terminal, kept
[1]
  stoichiometry N: 2
[2]
  Km: 40900 ± 3900 µM
  Vmax: 18.1 µmol/min/mg
  kcat/Km: 320 M⁻¹ s⁻¹
[3]
  Km: 600 ± 100 µM
  Vmax: 11 µmol/min/mg
  kcat/Km: 12400 M⁻¹ s⁻¹
[4]
  Km: 39300 ± 4600 µM
  Vmax: 6.2 µmol/min/mg
  kcat/Km: 120 M⁻¹ s⁻¹
[5]
  Km: 2800 ± 200 µM
  Vmax: 69.2 µmol/min/mg
  kcat/Km: 17800 M⁻¹ s⁻¹
[6]
  Km: 1300 ± 200 µM
  Vmax: 17 µmol/min/mg
  kcat: 12.2 s⁻¹
  kcat/Km: 9800 M⁻¹ s⁻¹

B2: mesaconyl-CoA hydratase from Haloarcula hispanica (enzyme, UniProt G0HQ35 1-358, looked up)
chain: MTDWTDPDALDLSDGETFDSLLDRADTREKGHFFEFFAEGDELAHDPGLRLSHHGSEQWMGQTLNHDPAYWRADTAQERGFEERPVHPDYLLACVMGITVEDLSEKGGYFLGRDDVEFHQPATAGTPLSVTSTVVDTRTSSSRPKYGIVTWETEGRDRETGETLVSYRRTNMIPRREPAATDGGAVGEQDEGGPAMPDTLLSPDGERFGDFQAALDTAREENAAVAYRHERGRTMDDQLVAGLPLSTLNTARQHHNRDEMADSPSGDIVAYGDVTRSIALAHARSDEATYREQRFADERFHDFVTLGDTVYGFTRVLDCDPDAGPERAGAVTFEHVAFNQEQTPVYSGRRTAHIQRHQ
notes: mesaconyl-CoA hydratase (Mch, Hah_1340) of Haloarcula hispanica; the 1.07-kb mch gene (358 amino acids, predicted molecular mass 40 kDa) was cloned into pTA963; No removal of the tag is described; also called Mch; Hah_1340; source: Haloferax volcanii H1209 (pTA963), purified (Ni-NTA, gel filtration); not shown: His6, N-terminal, kept
[1]
  stoichiometry N: 2
[7]
  Km: 2600 ± 300 µM
  Vmax: 1.6 µmol/min/mg
  kcat/Km: 200 M⁻¹ s⁻¹
[8]
  Km: 320 ± 50 µM
  Vmax: 3.6 µmol/min/mg
  kcat/Km: 3800 M⁻¹ s⁻¹
[9]
  Km: 180 ± 10 µM
  Vmax: 1.12 µmol/min/mg
  kcat/Km: 2000 M⁻¹ s⁻¹
[10]
  Km: 1000 ± 100 µM
  Vmax: 20.7 µmol/min/mg
  kcat/Km: 6900 M⁻¹ s⁻¹
[11]
  Km: 350 ± 50 µM
  Vmax: 266 µmol/min/mg
  kcat/Km: 254000 M⁻¹ s⁻¹
